Measurements published in patent US20240148894A1, “USE OF ANTIBODY-DRUG CONJUGATE TARGETING HER2 IN TREATMENT OF SPECIFIC BREAST CANCER” (priority 2021, published 2024).
Several values for one entry are separate records, joined by “and”; a condition that tells them apart may be missing. Equal entries are not always repeated. Entries after “also recorded” stand apart in the source; their conditions may differ.

Tested on: HER2-positive (IHC 3+ or FISH +) locally advanced or metastatic breast cancer
Experiment: Parallel-group, randomized, open-label clinical trial; progression-free survival (PFS), ITT and metastatic-site subgroup analyses
Format: in vivo, human
Method: This study was a parallel-group, randomized, open-label clinical trial to evaluate the efficacy and safety of Disitamab vedotin as compared to treatment with lapatinib and capecitabine in patients with HER2-positive (positive being defined as IHC 3+ or FISH +) locally advanced or metastatic breast cancer. Subjects were randomized 1:1.
The primary endpoint indicator of the study was PFS (progression-free survival), which was evaluated for 6 weeks (±7 days).
Disitamab vedotin, namely RC48-ADC (average DAR value: 4±0.5), was administered at a dose of 2.0 mg/kg via intravenous drip, once every 2 weeks, 42 days as one treatment cycle.

[1] = overall ITT, RC48-ADC relative to capecitabine+lapatinib

B1: Disitamab vedotin (conjugate, chains of the INN, looked up)
VH: EVQLVQSGAEVKKPGATVKISCKVSGYTFTDYYIHWVQQAPGKGLEWMGRVNPDHGDSYYNQKFKDKATITADKSTDTAYMELSSLRSEDTAVYFCARNYLFDHWGQGTLVTVSS
VL: DIQMTQSPSSVSASVGDRVTITCKASQDVGTAVAWYQQKPGKAPKLLIYWASIRHTGVPSRFSGSGSGTDFTLTISSLQPEDFATYYCHQFATYTFGGGTKVEIK
modifications: vedotin (MMAE) payload
Disease progression or death, % (Bone metastasis: No (N=63 vs 68), ITT): 63.5%
Censoring, % (Bone metastasis: No, ITT): 36.5%
Progression-free survival time, Median (95% CI) (Bone metastasis: No, ITT, Kaplan-Meier): 9.6 months and 9.6 (6.9, 13.1) months
COX proportional hazards model (without considering stratification factors) Hazard ratio (95% CI) (Bone metastasis: No, RC48-ADC relative to capecitabine+lapatinib): 0.76 (0.50, 1.15)
Disease progression or death, % (Bone metastasis: Yes (N=36 vs 33), ITT): 77.8%
Censoring, % (Bone metastasis: Yes, ITT): 22.2%
Progression-free survival time, Median (95% CI) (Bone metastasis: Yes, ITT, Kaplan-Meier): 7.8 months and 7.8 (2.8, 12.4) months
COX proportional hazards model (without considering stratification factors) Hazard ratio (95% CI) (Bone metastasis: Yes, RC48-ADC relative to capecitabine+lapatinib): 0.95 (0.56, 1.61)
Disease progression or death, % (Liver metastasis: No (N=61 vs 58), ITT): 75.4%
Censoring, % (Liver metastasis: No, ITT): 24.6%
Progression-free survival time, Median (95% CI) (Liver metastasis: No, ITT, Kaplan-Meier): 7.0 months and 7.0 (5.5, 9.9) months
COX proportional hazards model (without considering stratification factors) Hazard ratio (95% CI) (Liver metastasis: No, RC48-ADC relative to capecitabine+lapatinib): 1.26 (0.83, 1.91)
Disease progression or death, % (Liver metastasis: Yes (N=38 vs 43), ITT): 57.9%
Censoring, % (Liver metastasis: Yes, ITT): 42.1%
Progression-free survival time, Median (95% CI) (Liver metastasis: Yes, ITT, Kaplan-Meier): 12.5 months and 12.5 (7.1, 14.1) months
COX proportional hazards model (without considering stratification factors) Hazard ratio (95% CI) (Liver metastasis: Yes, RC48-ADC relative to capecitabine+lapatinib): 0.41 (0.24, 0.71)
Disease progression or death, % (Lung metastasis: No (N=55 vs 49), ITT): 61.8%
Censoring, % (Lung metastasis: No, ITT): 38.2%
Progression-free survival time, Median (95% CI) (Lung metastasis: No, ITT, Kaplan-Meier): 10.9 months and 10.9 (5.7, 13.7) months
COX proportional hazards model (without considering stratification factors) Hazard ratio (95% CI) (Lung metastasis: No, RC48-ADC relative to capecitabine+lapatinib): 0.68 (0.42, 1.07)
Disease progression or death, % (Lung metastasis: Yes (N=44 vs 52), ITT): 77.3%
Censoring, % (Lung metastasis: Yes, ITT): 22.7%
Progression-free survival time, Median (95% CI) (Lung metastasis: Yes, ITT, Kaplan-Meier): 8.2 months and 8.2 (5.6, 12.2) months
COX proportional hazards model (without considering stratification factors) Hazard ratio (95% CI) (Lung metastasis: Yes, RC48-ADC relative to capecitabine+lapatinib): 1.05 (0.67, 1.65)
Disease progression or death, % (Viscera metastasis (CRF): No (N=22 vs 23), ITT): 68.2%
Censoring, % (Viscera metastasis (CRF): No, ITT): 31.8%
Progression-free survival time, Median (95% CI) (Viscera metastasis (CRF): No, ITT, Kaplan-Meier): 9.6 months and 9.6 (4.3, 14.2) months
Disease progression or death, % (Viscera metastasis (CRF): Yes (N=77 vs 78), ITT): 68.8%
Censoring, % (Viscera metastasis (CRF): Yes, ITT): 31.2%
Progression-free survival time, Median (95% CI) (Viscera metastasis (CRF): Yes, ITT, Kaplan-Meier): 9.3 months and 9.3 (6.9, 12.2) months
relative risk reduction of disease progression or death (Viscera metastasis: No (as printed in Table 7), vs capecitabine+lapatinib): 24% chance of
COX proportional hazards model (without considering stratification factors) Hazard ratio (95% CI) (Viscera metastasis: No, RC48-ADC relative to capecitabine+lapatinib): 1.02 (0.51, 2.05)
COX proportional hazards model (without considering stratification factors) Hazard ratio (95% CI) (Viscera metastasis: Yes, RC48-ADC relative to capecitabine+lapatinib): 0.76 (0.53, 1.10)
COX proportional hazards model (considering stratification factors) Hazard ratio (95% CI) [1]: 0.82 (0.59, 1.13)
COX proportional hazards model (without considering stratification factors) Hazard ratio (95% CI) [1]: 0.82 (0.60, 1.14)
PFS comparison with control group, in words (overall sample of breast cancer patients): did not show a statistically significant advantage
Censoring, % (overall, ITT analysis set): 31.3%
Disease progression or death, % (overall, ITT analysis set (N=99 vs 101)): 68.7%
Progression-free survival, Median (95% CI) (overall, ITT analysis set, Kaplan-Meier): 9.3 months and 9.3 (6.9, 12.2) months
PFS comparison with control group, in words (patients with bone metastasis): no very significant difference; also recorded: no statistically significant difference
median progression-free survival time longer than control treatment group by (patients with liver metastasis, vs capecitabine+lapatinib): 6.9 months
PFS comparison with control group, in words (patients with lung metastasis): no significant difference
progression-free survival time shorter than capecitabine+lapatinib by (patients with lung metastasis): 0.1 months
PFS comparison with control group, in words (patients with viscera metastasis): did not show statistical differences; also recorded: no statistically significant difference
median progression-free survival time longer than control treatment group by (patients with viscera metastasis, vs lapatinib+capecitabine): 2.4 months
PFS comparison with control group, in words (patients without bone metastasis): did not show a statistically significant advantage; also recorded: no very significant difference; also recorded: no statistically significant difference
relative risk reduction of disease progression or death (patients without bone metastasis, vs capecitabine+lapatinib): 24% chance of
median progression-free survival time longer than control treatment group by (patients without bone metastasis, vs lapatinib+capecitabine): 1.6 months
median progression-free survival time shorter than control treatment group by (patients without liver metastasis, vs capecitabine+lapatinib): 2.0 months
median progression-free survival time longer than control treatment group by (patients without lung metastasis, vs capecitabine+lapatinib): 5.3 months
PFS comparison with control group, in words (patients without viscera metastasis): did not show a statistically significant advantage; also recorded: no statistical difference; also recorded: no statistically significant difference
median progression-free survival time longer than control treatment group by (patients without viscera metastasis, vs lapatinib+capecitabine): 1.5 months
